In article PMC4321732 (Structure (London, England : 1993), 2015):
*1 amine or outer side, *2 acyl side, *3 side chain or, on linkers, in order; H or OH if unused. Where no end group is shown, it is not given here. [ ]: non-standard residue; d: D form. KCme2 = N-dimethylated aminoethylcysteine, CN(C)CCSC[C@H](N[*:1])C(=O)[*:2]; Me2 = dimethyl group on the Lys side-chain amine

Target: T1, tandem Tudor domain (TTD) of human 53BP1 (human, UniProt Q12888 1484-1603)
Assay: solution NMR structure

T1 sequence (Q12888 1484-1603): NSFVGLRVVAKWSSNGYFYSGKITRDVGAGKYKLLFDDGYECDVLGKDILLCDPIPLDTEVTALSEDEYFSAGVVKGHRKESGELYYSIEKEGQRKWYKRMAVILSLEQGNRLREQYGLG

| binding result | Binder |
| --- | --- |
| binds | RAHSSHLK(Me2)SKKGQST (peptide, UniProt P04637 363-377, looked up) [p53K370me2 peptide (residues R363-T377 of p53)] |

Target: T1, tandem Tudor domain (TTD) of human 53BP1
Assay: NMR titration

| binding result | Binder |
| --- | --- |
| binds | STSRHKK(Me2)LMFKT (peptide, UniProt P04637 376-387, looked up) [p53K382me2 peptide (residues S376-T387 of p53)] |
| binds | GHMRAHSSHLCSKGGQST (not fully specified (residue 11)) [p53KC370me2K373G peptide] |
| binds | GHMRAGSSHL[KCme2]SKKGQST [p53H365GKC370me2 peptide] |
| binds | SSHLKSKKGQSTSRHKKLMFK (peptide, UniProt P04637 366-386, looked up, dimethyllysine at 370; dimethyllysine at 382) [p53K370me2K382me2 peptide (residues S366-K386)] |
| binds | GHMSTSRHKCGMFKT (not fully specified (residue 10)) [p53KC382me2L383G peptide] |
| binds | GHMSTSRHKCLMGKT (not fully specified (residue 10)) [p53KC382me2F385G peptide] |

Continued, binder first:

| Binder | binding result |
| --- | --- |
| GHMRAHSSHLCSKKGQST (not fully specified (residue 11)) [p53KC370me2 peptide (recombinant, dimethyllysine analogue at 370)] | binds |
| GHMRAHSSHLCSGKGQST (not fully specified (residue 11)) [p53KC370me2K372G peptide] | binds |
| GHMRAHSSHGCSKKGQST (not fully specified (residue 11)) [p53L369GKC370me2 peptide] | binds |
| GHMRAHSSGLCSKKGQST (not fully specified (residue 11)) [p53H368GKC370me2 peptide] | binds |
| GHMSTSRHKCLMFKT (not fully specified (residue 10)) [p53KC382me2 peptide (recombinant, dimethyllysine analogue at 382)] | binds |
| GHMSTSRGKCLMFKT (not fully specified (residue 10)) [p53H380GKC382me2 peptide] | binds |
| GHMSTSRHGCLMFKT (not fully specified (residue 10)) [p53K381GKC382me2 peptide] | binds |
| GHMSTSGHKCLMFKT (not fully specified (residue 10)) [p53R379GKC382me2 peptide] | binds |
